Laboratory results: the supplement of paper PMC9170038

Test system: MS2 coat protein
Experiment: apparent KD of MS2 coat protein; designed switch direction (-1 OFF switch, 1 ON switch): -1; higher = weaker reporter binding
How it was run: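 On Illumina chips, designed RNA switches with common flanks were made by stalled E. coli RNA polymerase. Titrations with SNAP-549-labelled MS2 coat protein, doubling from 0.7 or 1.5 nM to 3 µM, were done with no input, with 200 uM small-molecule ligand, or with an oligonucleotide input. Apparent KD is the median per design over clusters, from curve fits of normalised cluster fluorescence.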

[1] = Eterna round: R95, input ligand: microRNA oligo, concentration not stated
[2] = input ligand: microRNA oligo, concentration not stated
[3] = Eterna round: R95, input ligand: FMN 200 uM
[4] = Eterna round: R95, input ligand: none

Sequence | apparent KD of MS2 coat protein (input ligand: FMN 200 uM) [nM] | apparent KD of MS2 coat protein (input ligand: none) [nM] | apparent KD of MS2 coat protein [1] [nM] | apparent KD of MS2 coat protein [2] [nM] | apparent KD of MS2 coat protein [3] [nM] | apparent KD of MS2 coat protein [4] [nM]
UACACCACAUGAGGAUCAAACAUGAGGAUCACCCAUGUAUAACAAGCUUUUUGCUCGUCUUAUAAAUAUGUGGUGUA [Electric Eye 5 - Jieux - Sensor, turn-off variant 1] (Eterna round: R97, puzzle: Sensor, turn-off variant 1) | 14.2 | 14.5 |  |  |  | 
AAUCCACAUGAGGAUCACCCAUGUCAGGAUAUCGUGUCGCGGGUUUCGGUCCGUGAUGCGAGAAGGGACGGCUG (puzzle: Exclusion 1) |  |  | 27.4 |  |  | 
ACCCGCACAAGCACCAGAGACAUGAGGAUCACCCAUGUAUAGUCGCACUAGGGUCUCUCUAGUCUAGCCGUUCGUCA [Eternabot (Original) Solution 44] (Eterna round: R97, puzzle: Sensor, turn-off variant 1) | 90.4 | 213 |  |  |  | 
GCAGCAAUCUCAAUUAAAACCACAUGAGGAUCACCCAUGUCUCAGGAUAUGGUCUGGAUUACAGGCCAGAAGGGAGAAAGCUGC [Eli exng3 - 053] (Eterna round: R96, puzzle: Exclusion NG 3) | 13.5 | 13 |  | 10.2 |  | 
UUCCUCACUUCUUUGUCUCACAUGAGGAUCACCCAUGUAAUAUAGGAUAUGCUUAGUAUUUUUAUGCAGAAGGAUAUUAGUUUU [JR_ExcNG3_Sub085] (Eterna round: R96, puzzle: Exclusion NG 3) | 169 | 39.8 |  | 32.8 |  | 
GACUCAAUCCGAGGAUAUUGCCAGCGCUGCUAUCACAUGAGGAUCACCCAUGUAUCCUCGGCUUUCGAGAAGGCGGAUUGAGCG [Eternabot solution 35] (Eterna round: R96, puzzle: Exclusion NG 2) | 132 | 49.9 |  | 46.8 |  | 
UUUCUUCAUAUCACAUGAGGAUCACCCAUGUUAUUCAUCGCGUAGGAUAUCGAGAAUUUUAAAUACGAGAAGGACGUAUUGAUA [JR_ExcNG3_Sub072] (Eterna round: R96, puzzle: Exclusion NG 3) | 43.4 | 38.8 |  | 31.1 |  | 
GCUGGUCGAGGAUAUGCAAUCGUGCUUCGGCACGUAAGAUCACAUGAGGAUCACCCAUGUAGAAGGUGACCAGC [E2/3-B1] (Eterna round: R97, puzzle: Exclusion 2) | 31.2 | 17.8 |  |  |  | 
AGUCGGCGAGGAUAUACAUGAGGAUCACCCAUGUGAGAGAAUAAAGUGAGUUAGACAAGUAGAAGGCGCUGACA [JL Lego Mod 10] (Eterna round: R96, puzzle: Exclusion 3) | 356 | 48.1 |  | 40.9 |  | 
AAUAAACAUGAGGAUCACCCAUGUCAGGAUAUCCAUUUGUUUUUGUUGGUUUUUUUUUGGAGAAGGGACGCUUA [Lollin - Alpha 1] (puzzle: Exclusion 1) |  |  | 58.1 |  |  | 
GGUCGUCAAGUCAGGAUAUCGUAUAGUCGAUGUAACGAGAAGGGACAUGAGGAUCACCCAUGUCGUCUCAUCAG [Ex4 #25] (Eterna round: R97, puzzle: Brourd's mod of Exclusion 4) | 18.2 | 17.7 |  |  |  | 
GACCGGACGUGGUCUGGUAACAUGAGGAUCACCCAUGUAGGUCUAAGAACAAGCCUUUUGCACGCUCGUCUUAUAUU [JR_SV3TOV1_Sub061] (puzzle: Sensor v3, turn-off variant 1) |  |  | 56.5 |  | 64.4 | 88.2
CGUGUCUUUUACGUGAGUGGUGGGUGCAACAGGUGGGUUACAUGAGGAUCACCCAUGUGCUCACUUGCUCGUCUUUU [Grok-var2-09] (puzzle: Sensor v3, turn-off variant 2) |  |  | 39.3 |  | 60.7 | 58.1
